The source of these data is PMC4909301, “Fibulin-5 Regulates Angiopoietin-1/Tie-2 Receptor Signaling in Endothelial Cells” (PLoS ONE, 2016).

The assay addresses T1, recombinant human Tie-2/Fc chimera (human, UniProt Q02763 23-748).
T1 construct: TIE-2 receptor tyrosine kinase, human, part fused to Fc in R&D Systems Cat. #313-TI-100; source: bought: R&D Systems
Description: ELISA; solid-phase binding assay; TIE-2/Fc (4.0 ug/ml) or Fibulin-5 (20 ug/ml) coated on 96-well plates; 1:2 serial dilutions of soluble Ang-1 in 2% non-fat milk in TBS, 1 hr, room temperature; detected with Ang-1 antibody. The conditions noted are these: both partners purified. (In general: An ELISA detects its analyte on a solid surface through an enzyme-linked reagent.)

T1 sequence (Q02763 23-748, change not shown): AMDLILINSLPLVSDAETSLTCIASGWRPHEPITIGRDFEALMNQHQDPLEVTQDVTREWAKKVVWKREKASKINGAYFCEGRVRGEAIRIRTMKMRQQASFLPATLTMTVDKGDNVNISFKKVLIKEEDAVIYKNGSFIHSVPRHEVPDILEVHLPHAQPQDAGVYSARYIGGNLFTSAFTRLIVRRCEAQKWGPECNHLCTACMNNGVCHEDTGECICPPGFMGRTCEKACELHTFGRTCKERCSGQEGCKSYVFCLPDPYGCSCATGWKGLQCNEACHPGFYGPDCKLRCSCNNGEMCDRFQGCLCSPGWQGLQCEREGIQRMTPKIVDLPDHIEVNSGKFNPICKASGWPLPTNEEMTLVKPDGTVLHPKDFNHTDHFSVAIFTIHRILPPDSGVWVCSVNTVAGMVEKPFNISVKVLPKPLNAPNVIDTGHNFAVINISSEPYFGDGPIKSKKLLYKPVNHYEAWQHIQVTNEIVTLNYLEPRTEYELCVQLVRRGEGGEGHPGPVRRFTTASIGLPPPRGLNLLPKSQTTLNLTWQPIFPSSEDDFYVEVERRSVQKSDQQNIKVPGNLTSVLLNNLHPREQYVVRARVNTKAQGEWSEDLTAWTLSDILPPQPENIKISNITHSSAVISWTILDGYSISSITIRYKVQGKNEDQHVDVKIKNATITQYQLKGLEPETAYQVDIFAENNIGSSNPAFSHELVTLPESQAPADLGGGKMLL

B1: recombinant human Ang-1 (angiopoietin-1) (ligand, UniProt Q15389 16-498, looked up)
chain: HIGCSNQRRSPENSGRRYNRIQHGQCAYTFILPEHDGNCRESTTDQYNTNALQRDAPHVEPDFSSQKLQHLEHVMENYTQWLQKLENYIVENMKSEMAQIQQNAVQNHTATMLEIGTSLLSQTAEQTRKLTDVETQVLNQTSRLEIQLLENSLSTYKLEKQLLQQTNEILKIHEKNSLLEHKILEMEGKHKEELDTLKEEKENLQGLVTRQTYIIQELEKQLNRATTNNSVLQKQQLELMDTVHNLVNLCTKEGVLLKGGKREEEKPFRDCADVYQAGFNKSGIYTIYINNMPEPKKVFCNMDVNGGGWTVIQHREDGSLDFQRGWKEYKMGFGNPSGEYWLGNEFIFAITSQRQYMLRIELMDWEGNRAYSQYDRFHIGNEKQNYRLYLKGHTGTAGKQSSLILHGADFSTKDADNDNCMCKCALMLTGGWWFDACGPSNLNGMFYTAGQNHGKLNGIKWHYFKGPSYSLRSTTMMIRPLDF
notes: angiopoietin-1, human, recombinant, R&D Systems Cat. #923-AN/CF; The introduction calls angiopoietins oligomeric glycoproteins; source: bought: R&D Systems
In the case of B1, the binding result is listed as “binds”.
